{"source": "the nanobody polyreactivity screen of Harvey et al. (2022)", "data": [{"test": "yeast display, Sf9 membrane polyspecificity reagent, FACS + sequencing; frameworks hold sequencing errors", "procedure,_shortened": "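Genes from sorted yeast were amplified by colony PCR, read by MiSeq 2 × 250 sequencing and filtered on CDR length. These cells carried a synthetic nanobody library in Saccharomyces cerevisiae BJ5465 and were sorted by FACS into low and high (top ~1%) gates on anti-HA and streptavidin fluorescence. Polyreactivity is labelled according to the gate of origin.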", "values": [{"sequence": "QVQLQESGGGLVQAGGSLRLSCAASGSIFYEFYMGWYRQAPGKERELVAAIANGASTYYADSVKGRFTISRDNSKNTVYLQMSSLKPEDTAVYYCAVNTTSDIDYIYWGQGTQVNVSS", "polyreactivity (PSR sort gate)": "low polyreactivity"}, {"sequence": "QVQLQESGGGLVQAGGSLRLSCAASGSITHYIFMGWYRQAPGKEREFVAGIGYGGTTNYADSVKGRFTISRDNAINTVYLQMNSLKPEDTAMYYCAAREATEFYLYYWGQGTQVTVSS", "polyreactivity (PSR sort gate)": "low polyreactivity"}, {"sequence": "QVQLQESGGGLVQAGGSLRLSCAASGSIYVSVTMGWYRQAPGKERELVASIGRGSTTNHADSVKGRFTISRDNAKNIVYLLMNSLKPEDTAVYYCAALESYGKYHGYWGEGTQVTVSS", "polyreactivity (PSR sort gate)": "low polyreactivity"}, {"sequence": "QVQLQESGGGLVQAGGSLRLSCAASGSSFEELDMGWYRQAPGKEREFVAAIGTGSTTYYADSVKGRLTISRDNAKNTVYLQMNSLKPEDTAVYYCAVDTWARAYLGYWGQGTQVTVSS", "polyreactivity (PSR sort gate)": "high polyreactivity"}, {"sequence": "QVQLQESGGGLVQAGGSLRLSCAASGTIFRFRYMGWHRQAPGKERELVAGINGGTTTYYADSVIGRFTISRDNAKKSVYLQMNSLKPDDTAVYNCAAGASRLTYYDYWGQGTQVTVSS", "polyreactivity (PSR sort gate)": "low polyreactivity"}, {"sequence": "QVQLQESGGGLVQAGGSLRLSCAASGTISDSGLMGWYRQAPGKERELVAGISSGGITNYADSVKGRFTISRDIAKNTVYLQMNSLKPEDTAVYWGQGTQVTVSS", "polyreactivity (PSR sort gate)": "low polyreactivity"}, {"sequence": "QVQLQESGGGLVQAGGSLRLSCAASGTISDSGLMGWYRQAPGKERELVAGISSGGITNYADSVKGRFTISRDNAKKTVYLQMNSLKPEDTAVYWGQGTQLTVSS", "polyreactivity (PSR sort gate)": "low polyreactivity"}, {"sequence": "QVQLQESGGGLVQAGGSLRLSCAASGTISQEDWMGWYRQAPGKEREFVAAIGLGSNTNYADSLKGRFTISRDNAKNTVYLQMNSLKPEDTAVYYCAVSVWQYSDNVYRGQGTQVTVSS", "polyreactivity (PSR sort gate)": "low polyreactivity"}, {"sequence": "QVQLQESGGGLVQAGGSLRLSCAASGTISQEDWMGWYRQAPGKEREFVAPIGLGSNTNSADSLKGRFTISRDNAKNTVYLHMNSLKPEDTAVYYCAVCVWQYSDHVYRGQGTQVTVSS", "polyreactivity (PSR sort gate)": "low polyreactivity"}, {"sequence": "QVQLQESGGGLVQAGGSLRLSCAASGTISVHASMGWYRQAPGKERELVAGITDGANTYYADSVKGRFTISRDNSKNTVYMQKNSLKPEDTAVYYCAAYYGTEVHFTYWGQGTQVTVSS", "polyreactivity (PSR sort gate)": "low polyreactivity"}, {"sequence": "QVQLQESGGGLVQAGGSLRLSCAASGTISYGSVMGWYRQAPGKERELDAGIGYGSTTNYADSVKGRFTISRDNAKNTVYLQMNSLKPDDTAVYYCARDLYYVYSFAPYRYEYWGHGTQVTVSS", "polyreactivity (PSR sort gate)": "low polyreactivity"}, {"sequence": "QVQLQESGGGLVQAGGSLRLSCAASGYISFSGYMGRYRQAPGKEREFVDSITPGRSTYYADSVKGRFTISRDNAENTVYLQMNSLQPEDTAVDYCAADDSRTEQHAYWGQGTQVTVRS", "polyreactivity (PSR sort gate)": "high polyreactivity"}, {"sequence": "QVQLQESGGGLVQAGGSLRLSCAASGYISHADEMGWYRKAPGKEHELVASISNGGSTNYADSVKGRFTISRDNAKNTVYLQMNSLKSEDTAVYYCAAWTGQVDIHYYWGMGTQVTVSS", "polyreactivity (PSR sort gate)": "low polyreactivity"}, {"sequence": "QVQLQESGGGLVQAGGSLRLSCAASGYISHADEMGWYRQAPGKEHELVASISNGGSTNYADSVKGRFTIRRDNAKNTVYLQMNSLKSEDTAVYYCAAWTGQVDIHDSWGQRTQVTVSS", "polyreactivity (PSR sort gate)": "low polyreactivity"}, {"sequence": "QVQLQESGGGLVQAGGSLRLSCAASGYISHADEMGWYRQAPGKEHELVASISNGGSTNYADSVKGRFTISRDNAKNTVFLQMNSLKSEDTAVYYCAAWTGQVDIHYYWGQGTQVTVSS", "polyreactivity (PSR sort gate)": "low polyreactivity"}, {"sequence": "QVQLQESGGGLVQAGGSLRLSCAASGYISHADEMGWYRQAPGKEHELVASISNGGSTNYADSVKGRFTISRDNANNTVYLQMNSLKSEVTAVYYCAAWTGQVDIHYYWGQGTQVTVSS", "polyreactivity (PSR sort gate)": "low polyreactivity"}, {"sequence": "QVQLQESGGGLVQAGGSLRLSCEASGSIYYPRTMGRSRQAPGKELEFVAGSGVGGTTYYADSVKGRFTISRDNAKNTVYLQMNSLIPEDDAVYYCAVAAYYDKYYVYWGQGTQVTVSC", "polyreactivity (PSR sort gate)": "low polyreactivity"}, {"sequence": "QVQLQESGGGLVQAGGSLRLSSAASGSIFKVVDMGLYRQAPAKEREFVATIGEGGNTYYADSVKGRFTMSRDNAKNTVYLQKNSLKPEDTALYFYAVVLGTSYRYTYWGQGTQVTVSS", "polyreactivity (PSR sort gate)": "low polyreactivity"}, {"sequence": "QVQLQESGGGLVQAGGSLRLTCAASGSISYPRTMGWYRQAPGKEREFVAGIGVGGTTYYADSVKGRYTISRDNAKNTVYLQMNSLKPEHAAVDYCAVAAYYDKYYVYWGQGTQVTVSC", "polyreactivity (PSR sort gate)": "low polyreactivity"}, {"sequence": "QVQLQESGGGLVQAGGSLRMICAASGYISACRQMGWYRKAPGKEREFVATINGGATTNYADSVKGRFTISRDNAKNSVYLQMNSLKPEDTAVYYCAAVIWYVQDYTYWGQGAQVTVSS", "polyreactivity (PSR sort gate)": "high polyreactivity"}, {"sequence": "QVQLQESGGGLVQAGGSLRMSCAASGNIFDADIMGWSRQAPGKERELVASNTDGRRTNYADSVKGRYTISRDSEKNTVYLQMNSLKAEDTAEYYCAAIAYPVVPTSFDYDCDYFHWGQGTQVTVSS", "polyreactivity (PSR sort gate)": "high polyreactivity"}, {"sequence": "QVQLQESGGGLVQAGGSLRMSCAASGTISPLPAMGWYRQAPGKDRDFVAGIDTGAITNYADSVKGRFTISRDNAKNTVYLQMNSLKPEDTAVYYCAVFPAAYDYYERYYTYWGQGTQVTVSS", "polyreactivity (PSR sort gate)": "low polyreactivity"}, {"sequence": "QVQLQESGGGLVQAGGSLRMSCSASGNIFDADIMGWYRQAPGKERELVASITDGRRTNYADSVKGRYTISRDSEKNTVYLQMNSLKPEDTAVYYCAAIAYPVVPTYFDYDSDYFHWGQGTQVTVSS", "polyreactivity (PSR sort gate)": "high polyreactivity"}, {"sequence": "QVQLQESGGGLVQAGGSLRQSYAASGYIFPSLAMGWYRQAPGKEREFVAAIGRGSTNNYADSVQGRFTISRDNAKNTAYQQMNSLKPEDTAVYYCAAAASPLTRHLYWGQGTQVTVSS", "polyreactivity (PSR sort gate)": "low polyreactivity"}, {"sequence": "QVQLQESGGGLVQAGGSPRLSCAASDNIFPDSLMCWYRQAPGKERELVATIGFGATTNYEDSVKGRFTISRDNAKNTVYLQMNSLNPEDTALYYCAAVPLNYEYFCYWGQGTQVTVSS", "polyreactivity (PSR sort gate)": "low polyreactivity"}, {"sequence": "QVQLQESGGGLVQAGGSPRLSCAASDNIFPDSVMCWYRQAPGKERELVATIGFGATTNYADSVKGRFTISRDNAKNTVYLQMNSLKPEDTAVYYCAAVPLNYEYFCYWGQGTQVTVSS", "polyreactivity (PSR sort gate)": "low polyreactivity"}, {"sequence": "QVQLQESGGGLVQAGGSQRLSCAASGSISILQSMRWYRQAPGKERELVAGINWGATTYYADSVKGRLTSCRDYAKNTVYLEMNSLNPEDTAVYYCAVPTYYTYPLLYWGQGTQVTVSS", "polyreactivity (PSR sort gate)": "low polyreactivity"}, {"sequence": "QVQLQESGGGLVQAGGSQRLSCAASGYIFYFQYMGWYRQAPGKEREFVAAISDGANTNYADSVKGRFTISRDNAKNTEYLQMNSLKPEDTAVYYCAAGLSTGTIAYGYNYWRQGTQVTVSS", "polyreactivity (PSR sort gate)": "low polyreactivity"}, {"sequence": "QVQLQESGGGLVQAGGTITLGYDMGWYRQAPGKEREFVAGIDTGAITYYADSVKGRFTNSRDNAKNTVYLQMNSLKPEDTAVYYCAAIQTHTYAHSYWGQGTQVTVSS", "polyreactivity (PSR sort gate)": "high polyreactivity"}, {"sequence": "QVQLQESGGGLVQAGGTLRLSCAASGSFSADEDMGWYRQSQGKEREFVAGISVGGNTNYADSVKGRFTISRENAKKTVYLKINCLKPEDTAVYYCRVRLRTSYLLDYWGQGTQVTVSS", "polyreactivity (PSR sort gate)": "high polyreactivity"}, {"sequence": "QVQLQESGGGLVQAGGTLRLSCAASGTISFTRDMGWYRQAPGKEREFVASIDRGASTYYADSVKGRFTISRDNAKNTVYLQMNSLKPEDNAVYYRAVIAPFYSSFAYWGQGTQVTVSS", "polyreactivity (PSR sort gate)": "high polyreactivity"}, {"sequence": "QVQLQESGGGLVQAGVSLRLSGAASGYISTFSSEMGWYRQAPVKERELVASIAPGCTTSYADSVKGRFTISRDNAKNTVYLQMNSLKPEDTAVYYCAVDYTVPASFGYWGQGTQVTVSS", "polyreactivity (PSR sort gate)": "high polyreactivity"}, {"sequence": "QVQLQESGGGLVQARGSLRLSCAASGSISRYYDMGWYRQAPCKESEFVAGISGGAITYYADSVKGRFTISRDNAKNTVYLQMNSLKPEDTAVYYCAADTGVYKYHSYWGQVTQVTVSS", "polyreactivity (PSR sort gate)": "low polyreactivity"}, {"sequence": "QVQLQESGGGLVQASGSIFHEPNMGWYRQAPGKERELVAGISSGANTYYADSVKGRFTISRDNAKNTVYLQMNSVKPEDTAVYHCAVVVHLYTDLRNWGQDTQVTVSS", "polyreactivity (PSR sort gate)": "high polyreactivity"}, {"sequence": "QVQLQESGGGLVQASGSIFHEPTMGWYRQAPGKERELVAGISSGANTYYADSGKGRCTISRDNAKNTVYLQMNSLKPEDTAVYYCNARRRYSLTMDYWGHGTQVTVSS", "polyreactivity (PSR sort gate)": "high polyreactivity"}, {"sequence": "QVQLQESGGGLVQASGSLRLSCAASGNIFPDYFMGWYRLATGKEREFVANITGGSTTNYADSVKGRFTISRDNANNTVYLQIYSLKPEDTAVYYCAVYFGTVQHAYWGQGTQVTVSS", "polyreactivity (PSR sort gate)": "high polyreactivity"}, {"sequence": "QVQLQESGGGLVQSGGSLRLSCAASGFIFARNYMGWYRQAPGKERELVAGIGVGASTNYADSVKGRFTISRDNAKNTVYLQMNSLKPEDTAVYYCNARTGTTWQGYEYDYWGQGTQVTVSS", "polyreactivity (PSR sort gate)": "low polyreactivity"}, {"sequence": "QVQLQESGGGLVQVGGSLRLSFAASGTIFIYGFLGWNLQAPGKERELVASINLGGITNYADSVKGRFTISRDNAKNTVYLQMLSLKPEDTAVYYCAAYVVTGQNYGYWGQGTQVTVSS", "polyreactivity (PSR sort gate)": "low polyreactivity"}, {"sequence": "QVQLQESGGGLVQVGGSQRLSCAASGNIFYNYAMGWYRHAQGKEREFDATINHGTSINYADSVKGRFTISRDNAKNSVYLQMNSLKPEDTAVYYCAADLSWTDNLFYWGQGTQVTVSS", "polyreactivity (PSR sort gate)": "low polyreactivity"}, {"sequence": "QVQLQESGGGMVQAGGCLRLSCAASVTIFDPDYMGWYHQAPGKERELVASISLGRITYYADSVKGRFTINRDNAKNTVFLQMISLKPEDTAVYYCAAVTGLFYHPFYKYNYWGQGTQVTVSS", "polyreactivity (PSR sort gate)": "high polyreactivity"}, {"sequence": "QVQLQESGGGMVQAGGSLRLSCASSGYISWADYMGWSRQAPGKERELVDGIGYGSTTYYADSVKGRFNISRDNAKNTAYLQMISLKPEDTAVYYCAVGWYSVTAYNYWGQGTQVTVSS", "polyreactivity (PSR sort gate)": "low polyreactivity"}, {"sequence": "QVQLQESGGGMVQAGGSLRLSSAASGYISWADSMGWYRQAPGKERELVAGIGYGSTTYYADSVKGRFTISRDNAKNTAYLQMNSLKPEDTAVYYCSVGWYRDTAYKYWGQGTQVTVRS", "polyreactivity (PSR sort gate)": "low polyreactivity"}, {"sequence": "QVQLQESGGGQVHAGGSLRLSCAASGTIFLYAYMGWYRQAPGKERELVAAIDVGTTTNYADSVKGRFTISRDNAKNTVYLQMNSLKPEDTAVYYCAANLGYLDDLGYWGQGTQETVSS", "polyreactivity (PSR sort gate)": "low polyreactivity"}, {"sequence": "QVQLQESGGGQVQAGGSLRLSCAASGYISTHYFMGWYRQATGKDREFVAGISNGSITNYADSVKGRFTISRDNARNTVYLQMNSLKPEDTAVYYGAAYEWTYVRFGYWGQGTQVTVSG", "polyreactivity (PSR sort gate)": "high polyreactivity"}]}]}
